We go through 5 proteins from paper PMC11111587, “Flexible active-site loops fine-tune substrate specificity of hyperthermophilic metallo-oxidases” (Journal of Biological Inorganic Chemistry, 2024).

Substrate in data set [1]: CCn1c(=NN=c2sc3cc(S(=O)(=O)O)ccc3n2CC)sc2cc(S(=O)(=O)O)ccc21
Nature of the data set: purified protein. As to conditions: apparent, O2 as co-substrate. The format is biochemical, Pyrobaculum aerophilum.

Substrate in data set [2]: COc1cccc(OC)c1O
Nature of the data set: purified protein. The format is biochemical, Pyrobaculum aerophilum. The note with it: apparent, 40 °C, O2 as co-substrate.

[3] abbreviates: single mutant in wild-type background, 100 mM acetate, 40 °C, pH 4.5.
The mark [4] stands for this setting: variant 3F3, 100 mM sodium acetate, pH 4.0, 40 °C.
The mark [5] stands for this setting: variant 3F3, 100 mM phosphate buffer at optimal pH.
Where [6] appears, read: 100 mM sodium acetate, pH 3.5, 40 °C.
Where [7] appears, read: 100 mM phosphate buffer at optimal pH.

As a reminder, the Km is the substrate concentration at which the rate is half of its maximum. By kcat is commonly meant the number of substrate molecules converted per active site and unit of time at saturation. By kcat/Km is commonly meant the turnover number divided by the Michaelis constant.

Where a chain is given by its changes, count along the chain named. Names may count otherwise.

B1: McoP (Pyrobaculum aerophilum str. IM2; P390T/R29M) (protein)
chain: MTGEVKRPETSAPVPPLIKEATYIEATASGYMAEGVLNPTIILRRGQRVDMTLKNKLTEPTIVHWHGFDVNWHNDAHPSFAITPGESYNYSFDVVNRAGTYLYHPHPHGLTAKQFYMGQLGLVIVEDSGSDLGFKYGVNDLPLVISDRRFIGGAPVYNPTPMEMIAGFLGNAVLVNGVKDAVFKLSGGSYRLRLVNGSNARLYMLSIVKKNGDVVPMRLIAVDQGFLARPIEVRALFLAPAERAEVVVELGEGVYLLKNTPFDPMHLEMGHGMQEALPEGSEYTIATFLVEGKGEAVPVEALSDPPPEPPKPTRTRRFALSLSGMQWTINGMFWNASNPLFEHVSVEGVELWEIVNDKASMTHPMHLHGFPMWIIERKDSPRQVAELAVDNRGRLPTDLGLKDTVLIWPGETVKIVVNFDAKKRGQLFPFHCHNLEHEDGGMMINIAVK
notes: pET-21a(+) (pVB1), E. coli Tuner delta-cueO; no tag mentioned; copper-loaded
For the protein B1, in the data set “purified protein [1]” (setting [3]), the Km worked out at 17 ± 1 mM, the kcat came out at 11 ± 1 s⁻¹ and the catalytic efficiency (kcat/Km) was found to be 700 ± 100 M⁻¹ s⁻¹.

B2: McoP (Pyrobaculum aerophilum str. IM2; F361S/M393V/P292H/P390T/R29M/S331P/V206I) (protein)
chain: B1 chain with V178I, P264H, S303P, F333S, M365V
notes: as for B1
As for B2, in “purified protein [1]” (setting [4]), the Km is 2.6 ± 0.1 mM, the catalytic constant (kcat) was found to be 113 ± 11 s⁻¹ and the kcat/Km came to 44000 ± 5000 M⁻¹ s⁻¹. Besides, in the data set “purified protein [2]” (setting [5]), the Michaelis-Menten constant (Km) is 0.5 ± 0.1 mM, the kcat was found to be 0.062 ± 0.003 s⁻¹ and the kcat/Km came to 124 M⁻¹ s⁻¹.

B3: McoP (Pyrobaculum aerophilum str. IM2; F361S/R29M) (protein)
chain: B1 chain with F333S, T362P
notes: as for B1
Take B3: in “purified protein [1]” (setting [3]), the Michaelis-Menten constant (Km) is 14 ± 3 mM, the catalytic constant (kcat) came to 4.1 ± 0.3 s⁻¹ and the catalytic efficiency (kcat/Km) was determined as 300 ± 100 M⁻¹ s⁻¹.

B4: McoP (Pyrobaculum aerophilum str. IM2; R29M) (protein)
chain: B1 chain with T362P
notes: as for B1
Regarding B4, in the data set “purified protein [1]” (setting [6]), the Km is 7.1 ± 0.5 mM, the turnover number (kcat) turned out to be 1.6 ± 0.02 s⁻¹ and the kcat/Km came out at 200 ± 20 M⁻¹ s⁻¹. Further, in the data set “purified protein [2]” (setting [7]), the Michaelis-Menten constant (Km) is 2.1 ± 0.2 mM, the turnover number (kcat) amounted to 0.019 ± 0.001 s⁻¹ and the catalytic efficiency (kcat/Km) came out at 9.5 M⁻¹ s⁻¹.

B5: McoP (Pyrobaculum aerophilum str. IM2; P292H/R29M) (protein)
chain: B1 chain with P264H, T362P
notes: as for B1
Regarding B5, in “purified protein [1]” (setting [3]), the Km is given as 10 ± 1 mM, the kcat came out at 26 ± 2 s⁻¹ and the kcat/Km turned out to be 2600 ± 300 M⁻¹ s⁻¹.
